Test results reported in US20260234261A1.
Like-named read-outs stand apart in the source and are kept apart here.

What was measured:
Experiment in all cases: FACS binding
[1] = target: CHOS-hCCR8-hCTLA-4 cell (human) (UniProt P16410)
[2] = target: CHOS-hCCR8-hCTLA-4 cell (human) (UniProt P16410); remark: listed apart in the source
[3] = target: CHOS-hCCR8-hCTLA-4 cell (human) (UniProt P16410); remark: listed apart in the source

CHOS-hCCR8-hCTLA-4 cell (human), sequence (P16410 36-223, chain 1 of 2): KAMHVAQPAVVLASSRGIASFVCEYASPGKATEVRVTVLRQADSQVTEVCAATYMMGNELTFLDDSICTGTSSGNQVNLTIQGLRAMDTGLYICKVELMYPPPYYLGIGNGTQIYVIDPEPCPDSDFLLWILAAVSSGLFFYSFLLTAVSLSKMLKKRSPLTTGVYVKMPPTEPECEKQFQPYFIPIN
CHOS-hCCR8-hCTLA-4 cell (human), sequence (P51685 whole entry, chain 2 of 2, further chain): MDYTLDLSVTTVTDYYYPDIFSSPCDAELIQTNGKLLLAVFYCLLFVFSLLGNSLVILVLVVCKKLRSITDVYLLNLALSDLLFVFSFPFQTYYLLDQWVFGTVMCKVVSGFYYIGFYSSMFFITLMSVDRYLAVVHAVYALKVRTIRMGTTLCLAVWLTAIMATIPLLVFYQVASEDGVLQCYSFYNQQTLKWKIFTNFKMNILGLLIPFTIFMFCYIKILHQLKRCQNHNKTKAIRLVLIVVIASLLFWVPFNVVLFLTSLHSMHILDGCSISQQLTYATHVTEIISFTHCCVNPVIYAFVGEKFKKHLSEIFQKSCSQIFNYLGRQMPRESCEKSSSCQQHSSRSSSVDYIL

**Q.** Which results are given for Yervoy?
**A.** EC50 [1]: 0.682 nM; EC50 [2]: 0.75 nM; EC50 [3]: 0.722 nM
